Where no end group is shown, it is not given here.
Molecular target: MK2 (mitogen-activated protein kinase-activated protein kinase 2), P49137
Assay: cell-based or functional assay

Sequence of MK2 (mitogen-activated protein kinase-activated protein kinase 2), P49137 (P49137 46-400): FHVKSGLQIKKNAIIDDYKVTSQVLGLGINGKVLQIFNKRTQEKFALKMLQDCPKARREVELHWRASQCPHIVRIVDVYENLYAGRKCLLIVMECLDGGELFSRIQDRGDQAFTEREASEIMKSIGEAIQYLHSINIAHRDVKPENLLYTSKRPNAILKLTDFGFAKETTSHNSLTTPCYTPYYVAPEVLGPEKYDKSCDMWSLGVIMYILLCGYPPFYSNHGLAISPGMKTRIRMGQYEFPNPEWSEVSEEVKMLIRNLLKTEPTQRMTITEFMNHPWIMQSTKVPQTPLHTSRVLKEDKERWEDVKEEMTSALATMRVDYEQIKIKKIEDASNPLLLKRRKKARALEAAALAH

Binder YARAAARQARAKALARQLGVAA (not fully specified (C-terminus)) [MMI-0100 (…; SEQ ID NO: 1)] has a Percent Activity (radiometric kinase assay, 100 µM peptide) (percent activity) of less than 5.
